Substrate in this data set: Nc1nc(O)nc(O)n1
The data set can be described thus: purified protein. The following applies: 200 mM sodium phosphate pH 7.5, glycerol, 301 K, 28.0 °C.

B1: AtzC (N-isopropylammelide isopropylaminohydrolase) (Pseudomonas sp. ADP) (protein)
chain: MSKDFDLIIRNAYLSEKDSVYDIGIVGDRIIKIEAKIEGTVKDEIDAKGNLVSPGFVDAHTHMDKSFTSTGERLPKFWSRPYTRDAAIEDGLKYYKNATHEEIKRHVIEHAHMQVLHGTLYTRTHVDVDSVAKTKAVEAVLEAKEELKDLIDIQVVAFAQSGFFVDLESESLIRKSLDMGCDLVGGVDPATRENNVEGSLDLCFKLAKEYDVDIDYHIHDIGTVGVYSINRLAQKTIENGYKGRVTTSHAWCFADAPSEWLDEAIPLYKDSGMKFVTCFSSTPPTMPVIKLLEAGINLGCASDNIRDFWVPFGNGDMVQGALIETQRLELKTNRDLGLIWKMITSEGARVLGIEKNYGIEVGKKADLVVLNSLSPQWAIIDQAKRLCVIKNGRIIVKDEVIVA
For the protein B1, the Km is 3.1 ± 0.2 mM, the catalytic constant (kcat) was determined as 26.2 ± 1.8 s⁻¹ and the kcat/Km stood at 8500 M⁻¹ s⁻¹.

Usually Km stands for the substrate concentration at which the rate is half of its maximum. What is called kcat is the maximal rate divided by the concentration of active sites. The kcat/Km is the turnover number divided by the Michaelis constant.
